What is called Kd is the equilibrium constant for the complex coming apart.

For assay [1], the target named is T1, human B7RP-1-Fc (human, UniProt O75144 19-256, limits assumed).
T1 construct: not shown: Fc part
T1 sequence (looked up): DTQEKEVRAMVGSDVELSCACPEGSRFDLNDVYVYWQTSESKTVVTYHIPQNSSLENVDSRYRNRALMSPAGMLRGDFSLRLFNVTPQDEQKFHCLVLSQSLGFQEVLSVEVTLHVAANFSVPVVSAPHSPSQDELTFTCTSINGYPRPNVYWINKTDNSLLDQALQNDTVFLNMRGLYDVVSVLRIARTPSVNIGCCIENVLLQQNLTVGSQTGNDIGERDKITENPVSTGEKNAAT
As to the kind of experiment: SPR (BIAcore), ICOS-Fc immobilised on CM5, B7RP-1-Fc injected. (SPR reads the build-up and loss of mass on a sensor chip optically.)

For assay [2], the target named is T1, human B7RP-1-Fc. As to the kind of experiment: SPR (BIAcore), B7RP-1-Fc immobilised on CM5 or captured by anti-human Fc F(ab')2, scFv injected at 100 nM.

B1: ICOS-Fc (Fc fusion, human, UniProt Q9Y6W8 21-140, looked up)
chain: EINGSANYEMFIFHNGGVQILCKYPDIVQQFKMQLLKGGQILCDLTKTKGSGNTVSIKSLKFCHSQLSNNSVSFFLYNLDHSHANYYFCNLSIFDPPPFKVTLTGGYLHIYESQLCCQLK
notes: also called ICOS (Inducible costimulator) Fc fusion; biotin-labeled ICOS-Fc; not shown: Fc part
For B1, the Kd with human B7RP-1-Fc [1] was about 7 nM.

B2: human anti-human B7RP-1 single-chain Fv antibody clone 223 (scFv, part only; not given: linker and E tag, not shown: small tags and cut ends)
scFv, part: EVQLLQSGADVKKPGASVKVSCTASGYTFTAYYLNWVRQAPGQGLEWMGWLNPTSGDTYYAQKFQGRVTMTRDTSINTAYMELSSLKSDDTAVYYCARDIRSIEVPFDLWGQGTLVTVSSGIVLTQSPGTLSLSPGERVALSCRASQSVTSSFVAWYQQKPGQTPRLLVYGASSRVPGIPDRFSGNGSGTDFTLTITRLEPEDFAIYYCQYYGDSPYTFGQGTKVDIKR
In the assay with human B7RP-1-Fc [2], B2 had a Kd of 13 to 15 nM.

The values are drawn from patent WO2006003999A1 (dated 2006).
